# Measured values reported in publication PMC5896956, “Small molecule induced oligomerization, clustering and clathrin-independent endocytosis of the dopamine transporter” (eLife, 2018).
# B1: YFP-DAT additionally tagged with an extracellular hemagglutinin (HA) epitope (YFP-HA-DAT) (natural protein, human, UniProt Q01959 1-620, looked up)
# chain: MSKSKCSVGLMSSVVAPAKEPNAVGPKEVELILVKEQNGVQLTSSTLTNPRQSPVEAQDRETWGKKIDFLLSVIGFAVDLANVWRFPYLCYKNGGGAFLVPYLLFMVIAGMPLFYMELALGQFNREGAAGVWKICPILKGVGFTVILISLYVGFFYNVIIAWALHYLFSSFTTELPWIHCNNSWNSPNCSDAHPGDSSGDSSGLNDTFGTTPAAEYFERGVLHLHQSHGIDDLGPPRWQLTACLVLVIVLLYFSLWKGVKTSGKVVWITATMPYVVLTALLLRGVTLPGAIDGIRAYLSVDFYRLCEASVWIDAATQVCFSLGVGFGVLIAFSSYNKFTNNCYRDAIVTTSINSLTSFSSGFVVFSFLGYMAQKHSVPIGDVAKDGPGLIFIIYPEAIATLPLSSAWAVVFFIMLLTLGIDSAMGGMESVITGLIDEFQLLHRHRELFTLFIVLATFLLSLFCVTNGGIYVFTLLDHFAAGTSILFGVLIEAIGVAWFYGVGQFSDDIQQMTGQRPSLYWRLCWKLVSPCFLLFVVVVSIVTFRPPHYGAYIFPDWANALGWVIATSSMAMVPIYAAYKFCSLPGSFREKLAYAIAPEKDRELVDRGEVRQFTLRHWLKV
# notes: Dopamine transporter (DAT), human; Monomer runs at 95 kDa, SDS-resistant oligomer at about 290 kDa; also called dopamine transporter; human DAT; source: PAE cells, stably expressed, in lysate
# Target: the molecule itself
# Assay: SDS-resistant oligomers on SDS-PAGE and western blot; PAE cells stably expressing the tagged transporter, vehicle (DMSO) or 20 µM AIM-100 for 2 hr at 37°C (also after cocaine, dopamine, amphetamine, modafinil, KRCA-0008, CHC siRNA, at 4°C or 20°C); lysis in TGH buffer, Laemmli buffer (2% SDS, 5% β-mercaptoethanol) 5 min at 95°C, 7.5% SDS-PAGE, blot with GFP antibody; oligomers (O) against monomers (M)
protein,measurement,value
B1,fold increase of the fraction of the ~290 kDa oligomer species with AIM-100 against vehicle,> 5 fold
same,stoichiometry N,~3
